Target: Myc-tagged PTK7 (Xenopus protein tyrosine kinase 7, full length) (Xenopus)
Assay: co-IP; HEK293 cells co-transfected with Myc-tagged PTK7 and GFP-tagged constructs; immunoprecipitation with anti-Myc, Dynabeads Protein G, Western blot (Figure 5B)

ΔkPTK7-GFP (Xenopus Ptk7 with the kinase domain deleted, GFP-tagged) (receptor)
quantity co-precipitated with full-length PTK7 in respect to input, densitometry, relative to PTK7 = 1 (relative to PTK7 = 1): 2.6
